# Reference: publication PMC3568533
# B1: rat cytochrome P450 reductase (enzyme)
# chain: MGDSHEDTSATMPEAVAEEVSLFSTTDMVLFSLIVGVLTYWFIFRKKKEEIPEFSKIQTTAPPVKESSFVEKMKKTGRNIIVFYGSQTGTAEEFANRLSKDAHRYGMRGMSADPEEYDLADLSSLPEIDKSLVVFCMATYGEGDPTDNAQDFYDWLQETDVDLTGVKFAVFGLGNKTYEHFNAMGKYVDQRLEQLGAQRIFELGLGDDDGNLEEDFITWREQFWPAVCEFFGVEATGEESSIRQYELVVHEDMDVAKVYTGEMGRLKSYENQKPPFDAKNPFLAAVTANRKLNQGTERHLMHLELDISDSKIRYESGDHVAVYPANDSALVNQIGEILGADLDVIMSLNNLDEESNKKHPFPCPTTYRTALTYYLDITNPPRTNVLYELAQYASEPSEQEHLHKMASSSGEGKELYLSWVVEARRHILAILQDYPSLRPPIDHLCELLPRLQARYYSIASSSKVHPNSVHICAVAVEYEAKSGRVNKGVATSWLRAKEPAGENGGRALVPMFVRKSQFRLPFKSTTPVIMVGPGTGIAPFMGFIQERAWLREQGKEVGETLLYYGCRRSDEDYLYREELARFHKDGALTQLNVAFSREQAHKVYVQHLLKRDREHLWKLIHEGGAHIYVCGDARNMAKDVQNTFYDIVAEFGPMEHTQAVDYVKKLMTKGRYSLDVWS
# What was measured:
# [1] = biological target: CYP3A4 K96A (N-terminus truncated) (human) (UniProt P08684)
# [2] = biological target: CYP3A4 K421A (N-terminus truncated) (human) (UniProt P08684)
# [3] = biological target: CYP3A4 wild-type (N-terminus truncated) (human) (UniProt P08684)
# [4] = biological target: CYP3A4 K96A (N-terminus truncated) (human) (UniProt P08684); experiment: spectral titration
# [5] = biological target: CYP3A4 K421A (N-terminus truncated) (human) (UniProt P08684); experiment: spectral titration
# [6] = biological target: CYP3A4 wild-type (N-terminus truncated) (human) (UniProt P08684); experiment: spectral titration
# [7] = biological target: CYP3A4 K96A (N-terminus truncated) (human) (UniProt P08684); remark: listed apart in the source
# [8] = biological target: CYP3A4 K421A (N-terminus truncated) (human) (UniProt P08684); remark: listed apart in the source
# [9] = biological target: CYP3A4 wild-type (N-terminus truncated) (human) (UniProt P08684); remark: listed apart in the source
molecule,measurement,setting,value
Histidine-tagged recombinant human cyt b5 (commercial holo b5) (from UniProt P00167 1-134) (natural protein),"Ratio of Vmax + b5/− b5, testosterone 6β-hydroxylation, CYP:CPR:cyt b5 1:2:1",[1],1.3
same,"Ratio of Vmax + b5/− b5, testosterone 6β-hydroxylation, CYP:CPR:cyt b5 1:2:1",[2],2
same,"Ratio of Vmax + b5/− b5, testosterone 6β-hydroxylation, CYP:CPR:cyt b5 1:2:1",[3],1.7
reconstituted holo b5 (human cyt b5 made in-house) (from UniProt P00167 1-134) (natural protein),Kd,[4],346 nM
same,Kd,[5],287 nM
same,Kd,[6],140 nM
B1,"apparent K'm,CPR of TST 6β-hydroxylation at varying CPR concentrations",[7],91 nM
same,"apparent K'm,CPR of TST 6β-hydroxylation at varying CPR concentrations",[8],70 nM
same,"apparent K'm,CPR of TST 6β-hydroxylation at varying CPR concentrations",[9],41 nM
